Assays:
SM synthase = SM synthase activity, C6-NBD-Cer substrate, membrane fractions; assay type: biochemical, Chinese hamster; conditions: LY-A2/hCERT versus LY-A2 and CHO-K1 cells, FIG. 5
Method: The assay of SM synthase activity was carried out using C6—NBD-Cer as a substrate by a method of Hanada et al (Biochim. Biophys. Acta 1086, 151-156, 1991). However, the membrane fractions prepared respectively from CHO-K1 cell, LY-A2 cell and LY-A2/hCERT cell were used as an enzyme source.

LY-A2 cell = test: sensibility to MCD and lysenin (MTT); assay type: cell-based, Chinese hamster
Method: 100 thousand pieces of cells per each well of a 12-well culture dish were inoculated in 1 mL of F12/NBS culture medium and cultured at 33° C. overnight. After Cells existed on the culture dish was washed twice in 1 mL of serum-free F12 medium, 1 mL of 10 mM MCD/F12 or lysenin (25 ng/mL)/F12 was added. It should be noted that culture medium in which 1 mL of only serum-free F12 has been added was made control. After it has been incubated at 37° C. for one hour, it was washed twice in 1 mL of phosphate buffered saline (PBS). Subsequently, 1 mL of MTT (0.5 mg/mL)/F12 was added and incubated at 37° C. for one hour. The relative amount of the generated reduced form of MTT was measured by a method of reference literature written by Hanada et al (J. Biol. Chem. 273, 33787-33794, 1998).
The relevant gene was expressed in LY-A2 cell by making virus particle derived from retrovirus vector infect it prepared in the foregoing paragraph. Specifically, the relevant gene was expressed in LY-A2 cell by making virus particle derived from pLIB/hCERT. In the case where hCERT was expressed, the purified transformed strain was also separated by a ultradilution method, and this strain was named as LY-A2/hCERT. After it has been cultured for days, the sensitivity to MCD and lysenin was examined by the above-described method. […]

[1] = releasing reaction assay with other lipids as substrate (specificity); assay type: biochemical; conditions: FIG. 15
Method: Hereinafter, the standard method will be described in detail, however, even if the described conditions are changed, a method of detecting ceramide release promotion activity having means for separating releasing ceramide by a centrifugation principally belongs to the present invention. The lipid membrane containing ceramide was prepared so that it contains 12.5 nCi (225 pmol) per sample of [palmitoyl-1-^14C]N-palmitoyl-D-ethyro-sphigosine (hereinafter, may be referred to as ^14C-ceramide) on the basis of the mixed lipid consisting of phosphatidylcholine and phosphatidylethanolamine derived from egg yolk at the ratio of 4:1 and its concentration becomes 2.5 mg/mL. This lipid membrane is required at the rate of 20 μL per one sample of the activity measurement. […]
hCERT protein or its recombinant protein described above as a protein sample to be targeted (under the standard conditions, the amount of protein corresponding to 450 picomoles, which is 2-fold molar equivalent amount of ceramide contained in the donating membrane was used) were messed up to 30 μL using the buffer 2 [50 mM Hepes-NaOH buffer (pH7.4) to which 100 mM NaCl and 0.5 mM EDTA have been added]. […] The activity for promoting ceramide release with hCERT was calculated by measuring the radioactive activity of ^14C in the supernatant fraction using a liquid scintillation counter. […]

B1: hCERT protein: human CERT protein having an amino acid sequence of SEQ ID NO:1 (protein)
chain: MSDNQSWNSSGSEEDPETESGPPVERCGVLSKWTNYIHGWQDRWVVLKNNALSYYKSEDETEYGCRGSICLSKAVITPHDFDECRFDISVNDSVWYLRAQDPDHRQQWIDAIEQHKTESGYGSESSLRRHGSMVSLVSGASGYSATSTSSFKKGHSLREKLAEMETFRDILCRQVDTLQKYFDACADAVSKDELQRDKVVEDDEDDFPTTRSDGDFLHSTNGNKEKLFPHVTPKGINGIDFKGEAITFKATTAGILATLSHCIELMVKREDSWQKRLDKETEKKRRTEEAYKNAMTELKKKSHFGGPDYEEGPNSLINEEEFFDAVEAALDRQDKIEEQSQSEKVRLHWPTSLPSGDAFSSVGTHRFVQKVEEMVQNHMTYSLQDVGGDANWQLVVEEGEMKVYRREVEENGIVLDPLKATHAVKGVTGHEVCNYFWNVDVRNDWETTIENFHVVETLADNAIIIYQTHKRVWPASQRDVLYLSVIRKIPALTENDPETWIVCNFSVDHDSAPLNNRCVRAKINVAMICQTLVSPPEGNQEISRDNILCKITYVANVNPGGWAPASVLRAVAKREYPKFLKRFTSYVQEKTAGKPILF
modifications: HeLa cell
SM synthase
  activity of the SM synthase: no difference
LY-A2 cell; LY-A2 infected with virus particle derived from pLIB/hCERT, FIG. 2
  MCD resistance and lysenin sensitivity: significantly acquired MCD resistance and lysenin sensitivity
LY-A2 cell; purified LY-A2/hCERT cell, FIG. 3(A)
  sensitivity to MCD and lysenin: approximately the same level as the sensitivity seen in the wild type CHO-K1 cell
[1]
  diacylglycerol releasing promotion, of the activity with respect to ceramide: about 5%
[1]; substrate changed from ceramide to other lipids
  releasing reaction with respect to diacylglycerol, cholesterol, phosphatidylcholine, sphingomyelin, sphingosine: did not indicate a significant releasing reaction

Reference: patent US20080085859A1, “Drug Promoting Ceramide Transport, Base Sequence for Producing the Drug, Method of Measuring Activity of Promoting Ceramide Release and Method of Measuring Activity of Promoting Intermembrane Ceramide Transfer” (JAPAN SCIENCE AND TECHNOLOGY AGENCY, priority 2003, published 2008)
